Conditions: Equus caballus; pH 7; Thermal; CD; CAPS buffer; transition: 2; reversible: yes

Sequence of Cytochrome c wild type, P00004 (P00004 whole entry): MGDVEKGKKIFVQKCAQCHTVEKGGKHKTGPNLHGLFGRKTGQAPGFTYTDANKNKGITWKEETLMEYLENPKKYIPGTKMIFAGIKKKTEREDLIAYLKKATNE

## Cytochrome c wild type, P00004
  Tm: 83.4 °C
  heat capacity change of unfolding: 1.3 kcal/mol/K
  unfolding enthalpy (calorimetric): 76.7 kcal/mol

Reference: FireProtDB (doi:10.1093/jb/mvy087)
